The record followed here is patent US20210246166A1 (Bayer, published 2021).

Sequences and labels used below:
B1: Example 20: AIC+SRS-((tBu)A)-PPI-((N-Me)C)+(2-[(1S,2S)-1-(Amino)-2-methylbutyl]-1,3-oxazole-4-carboxylic acid)-D-NH2 (peptide)
peptide: AICSRS[tBuAla]PPI[NMeC][X17]D-NH2
modifications: disulfide 3-11; N-terminus assumed
SMILES: CC[C@H](C)[C@H](NC(=O)[C@H](C)N)C(=O)N[C@H]1CSSC[C@@H](C(=O)N[C@H](c2nc(C(=O)N[C@@H](CC(=O)O)C(N)=O)co2)[C@@H](C)CC)N(C)C(=O)[C@H]([C@@H](C)CC)NC(=O)[C@@H]2CCCN2C(=O)[C@@H]2CCCN2C(=O)[C@H](CC(C)(C)C)NC(=O)[C@H](CO)NC(=O)[C@H](CCCNC(=N)N)NC(=O)[C@H](CO)NC1=O
B2: Example 31: AIC+SRS-((tBu)A)-P-((6S)-5-Azaspiro[2.4]heptane-6-carboxylic acid)-I-(Pen)+IPD-OH (peptide)
peptide: AICSRS[tBuAla]P[Pro(4-spirocPr)]I[Pen]IPD-OH
modifications: disulfide 3-11; N-terminus assumed
SMILES: CC[C@H](C)[C@H](NC(=O)[C@H](C)N)C(=O)N[C@H]1CSSC(C)(C)[C@@H](C(=O)N[C@H](C(=O)N2CCC[C@H]2C(=O)N[C@@H](CC(=O)O)C(=O)O)[C@@H](C)CC)NC(=O)[C@H]([C@@H](C)CC)NC(=O)[C@@H]2CC3(CC3)CN2C(=O)[C@@H]2CCCN2C(=O)[C@H](CC(C)(C)C)NC(=O)[C@H](CO)NC(=O)[C@H](CCCNC(=N)N)NC(=O)[C@H](CO)NC1=O
B3: Example 37: AIC+SRS-((tBu)A)-PPIC+I-NH2 (peptide)
peptide: AICSRS[tBuAla]PPICI-NH2
modifications: disulfide 3-11; N-terminus assumed
SMILES: CC[C@H](C)[C@H](NC(=O)[C@@H]1CSSC[C@H](NC(=O)[C@@H](NC(=O)[C@H](C)N)[C@@H](C)CC)C(=O)N[C@@H](CO)C(=O)N[C@@H](CCCNC(=N)N)C(=O)N[C@@H](CO)C(=O)N[C@@H](CC(C)(C)C)C(=O)N2CCC[C@H]2C(=O)N2CCC[C@H]2C(=O)N[C@@H]([C@@H](C)CC)C(=O)N1)C(N)=O
B4: Example 17: AIC+SRSLP-((6S)-5-Azaspiro[2.4]heptane-6-carboxylic acid)-I-(Pen)+IPD-NH2 (peptide)
peptide: AICSRSLP[Pro(4-spirocPr)]I[Pen]IPD-NH2
modifications: disulfide 3-11; N-terminus assumed
SMILES: CC[C@H](C)[C@H](NC(=O)[C@H](C)N)C(=O)N[C@H]1CSSC(C)(C)[C@@H](C(=O)N[C@H](C(=O)N2CCC[C@H]2C(=O)N[C@@H](CC(=O)O)C(N)=O)[C@@H](C)CC)NC(=O)[C@H]([C@@H](C)CC)NC(=O)[C@@H]2CC3(CC3)CN2C(=O)[C@@H]2CCCN2C(=O)[C@H](CC(C)C)NC(=O)[C@H](CO)NC(=O)[C@H](CCCNC(=N)N)NC(=O)[C@H](CO)NC1=O
B5: Example 19: RIC+SRS-((tBu)A)-PPI-((N-Me)C)+IPD-NH2 (peptide)
peptide: RICSRS[tBuAla]PPI[NMeC]IPD-NH2
modifications: disulfide 3-11; N-terminus assumed
SMILES: CC[C@H](C)[C@H](NC(=O)[C@@H](N)CCCNC(=N)N)C(=O)N[C@H]1CSSC[C@@H](C(=O)N[C@H](C(=O)N2CCC[C@H]2C(=O)N[C@@H](CC(=O)O)C(N)=O)[C@@H](C)CC)N(C)C(=O)[C@H]([C@@H](C)CC)NC(=O)[C@@H]2CCCN2C(=O)[C@@H]2CCCN2C(=O)[C@H](CC(C)(C)C)NC(=O)[C@H](CO)NC(=O)[C@H](CCCNC(=N)N)NC(=O)[C@H](CO)NC1=O
B6: Example 36: AIC+SRSLP-((6S)-5-Azaspiro[2.4]heptane-6-carboxylic acid)-I-(Pen)+IPD-OH (peptide)
peptide: AICSRSLP[Pro(4-spirocPr)]I[Pen]IPD-OH
modifications: disulfide 3-11; N-terminus assumed
SMILES: CC[C@H](C)[C@H](NC(=O)[C@H](C)N)C(=O)N[C@H]1CSSC(C)(C)[C@@H](C(=O)N[C@H](C(=O)N2CCC[C@H]2C(=O)N[C@@H](CC(=O)O)C(=O)O)[C@@H](C)CC)NC(=O)[C@H]([C@@H](C)CC)NC(=O)[C@@H]2CC3(CC3)CN2C(=O)[C@@H]2CCCN2C(=O)[C@H](CC(C)C)NC(=O)[C@H](CO)NC(=O)[C@H](CCCNC(=N)N)NC(=O)[C@H](CO)NC1=O
B7: Example 48: AIC+SRS-((tBu)A)-PPI-((N-Me)C)+IPD-NH2 (peptide)
peptide: AICSRS[tBuAla]PPI[NMeC]IPD-NH2
modifications: disulfide 3-11; N-terminus assumed
SMILES: CC[C@H](C)[C@H](NC(=O)[C@H](C)N)C(=O)N[C@H]1CSSC[C@@H](C(=O)N[C@H](C(=O)N2CCC[C@H]2C(=O)N[C@@H](CC(=O)O)C(N)=O)[C@@H](C)CC)N(C)C(=O)[C@H]([C@@H](C)CC)NC(=O)[C@@H]2CCCN2C(=O)[C@@H]2CCCN2C(=O)[C@H](CC(C)(C)C)NC(=O)[C@H](CO)NC(=O)[C@H](CCCNC(=N)N)NC(=O)[C@H](CO)NC1=O
B8: Example 18: (Orn)-IC+SRS-((tBu)A)-PPI-(Pen)+IPD-OH (peptide)
peptide: [Orn]ICSRS[tBuAla]PPI[Pen]IPD-OH
modifications: disulfide 3-11; N-terminus assumed
SMILES: CC[C@H](C)[C@H](NC(=O)[C@@H](N)CCCN)C(=O)N[C@H]1CSSC(C)(C)[C@@H](C(=O)N[C@H](C(=O)N2CCC[C@H]2C(=O)N[C@@H](CC(=O)O)C(=O)O)[C@@H](C)CC)NC(=O)[C@H]([C@@H](C)CC)NC(=O)[C@@H]2CCCN2C(=O)[C@@H]2CCCN2C(=O)[C@H](CC(C)(C)C)NC(=O)[C@H](CO)NC(=O)[C@H](CCCNC(=N)N)NC(=O)[C@H](CO)NC1=O
B9: Example 49: (Orn)-IC+SRS-((tBu)A)-PPI-(Pen)+IPD-NH2 (peptide)
peptide: [Orn]ICSRS[tBuAla]PPI[Pen]IPD-NH2
modifications: disulfide 3-11; N-terminus assumed
SMILES: CC[C@H](C)[C@H](NC(=O)[C@@H](N)CCCN)C(=O)N[C@H]1CSSC(C)(C)[C@@H](C(=O)N[C@H](C(=O)N2CCC[C@H]2C(=O)N[C@@H](CC(=O)O)C(N)=O)[C@@H](C)CC)NC(=O)[C@H]([C@@H](C)CC)NC(=O)[C@@H]2CCCN2C(=O)[C@@H]2CCCN2C(=O)[C@H](CC(C)(C)C)NC(=O)[C@H](CO)NC(=O)[C@H](CCCNC(=N)N)NC(=O)[C@H](CO)NC1=O
B10: Example 38: RIC+SRS-((tBu)A)-PPI-((N-Me)C)+I-NH2 (peptide)
peptide: RICSRS[tBuAla]PPI[NMeC]I-NH2
modifications: disulfide 3-11; N-terminus assumed
SMILES: CC[C@H](C)[C@H](NC(=O)[C@@H]1CSSC[C@H](NC(=O)[C@@H](NC(=O)[C@@H](N)CCCNC(=N)N)[C@@H](C)CC)C(=O)N[C@@H](CO)C(=O)N[C@@H](CCCNC(=N)N)C(=O)N[C@@H](CO)C(=O)N[C@@H](CC(C)(C)C)C(=O)N2CCC[C@H]2C(=O)N2CCC[C@H]2C(=O)N[C@@H]([C@@H](C)CC)C(=O)N1C)C(N)=O
B11: Example 14: AIC+SRS-((tBu)A)-P-(Oic)-I-(Pen)+IPD-OH (peptide)
peptide: AICSRS[tBuAla]P[Oic]I[Pen]IPD-OH
modifications: disulfide 3-11; N-terminus assumed
SMILES: CC[C@H](C)[C@H](NC(=O)[C@H](C)N)C(=O)N[C@H]1CSSC(C)(C)[C@@H](C(=O)N[C@H](C(=O)N2CCC[C@H]2C(=O)N[C@@H](CC(=O)O)C(=O)O)[C@@H](C)CC)NC(=O)[C@H]([C@@H](C)CC)NC(=O)[C@@H]2C[C@@H]3CCCC[C@@H]3N2C(=O)[C@@H]2CCCN2C(=O)[C@H](CC(C)(C)C)NC(=O)[C@H](CO)NC(=O)[C@H](CCCNC(=N)N)NC(=O)[C@H](CO)NC1=O
B12: Example 45: AIC+SRS-((tBu)A)-P-((6S)-5-Azaspiro[2.4]heptane-6-carboxylic acid)-I-(Pen)+IPD-NH2 (peptide)
peptide: AICSRS[tBuAla]P[Pro(4-spirocPr)]I[Pen]IPD-NH2
modifications: disulfide 3-11; N-terminus assumed
SMILES: CC[C@H](C)[C@H](NC(=O)[C@H](C)N)C(=O)N[C@H]1CSSC(C)(C)[C@@H](C(=O)N[C@H](C(=O)N2CCC[C@H]2C(=O)N[C@@H](CC(=O)O)C(N)=O)[C@@H](C)CC)NC(=O)[C@H]([C@@H](C)CC)NC(=O)[C@@H]2CC3(CC3)CN2C(=O)[C@@H]2CCCN2C(=O)[C@H](CC(C)(C)C)NC(=O)[C@H](CO)NC(=O)[C@H](CCCNC(=N)N)NC(=O)[C@H](CO)NC1=O
B13: Example 35: KIC+SRS-((tBu)A)-PPI-((N-Me)C)+IPD-NH2 (peptide)
peptide: KICSRS[tBuAla]PPI[NMeC]IPD-NH2
modifications: disulfide 3-11; N-terminus assumed
SMILES: CC[C@H](C)[C@H](NC(=O)[C@@H](N)CCCCN)C(=O)N[C@H]1CSSC[C@@H](C(=O)N[C@H](C(=O)N2CCC[C@H]2C(=O)N[C@@H](CC(=O)O)C(N)=O)[C@@H](C)CC)N(C)C(=O)[C@H]([C@@H](C)CC)NC(=O)[C@@H]2CCCN2C(=O)[C@@H]2CCCN2C(=O)[C@H](CC(C)(C)C)NC(=O)[C@H](CO)NC(=O)[C@H](CCCNC(=N)N)NC(=O)[C@H](CO)NC1=O
B14: Example 12: AIC+SRS-((tBu)A)-PPI-(Pen)+IPD-OH (peptide)
peptide: AICSRS[tBuAla]PPI[Pen]IPD-OH
modifications: disulfide 3-11; N-terminus assumed
SMILES: CC[C@H](C)[C@H](NC(=O)[C@H](C)N)C(=O)N[C@H]1CSSC(C)(C)[C@@H](C(=O)N[C@H](C(=O)N2CCC[C@H]2C(=O)N[C@@H](CC(=O)O)C(=O)O)[C@@H](C)CC)NC(=O)[C@H]([C@@H](C)CC)NC(=O)[C@@H]2CCCN2C(=O)[C@@H]2CCCN2C(=O)[C@H](CC(C)(C)C)NC(=O)[C@H](CO)NC(=O)[C@H](CCCNC(=N)N)NC(=O)[C@H](CO)NC1=O

Numbered stars: 1 amine (or outer) side, 2 acyl side, 3 side chain; on linkers, the order of the positions; unused ones are H or OH. Bridge positions count the residues as written; N and C are the ends. Square brackets hold non-standard residues; d marks the D form. Ends that are not written are not given here. X17 = 2‑((1S,2S)-1-(Amino)-2-methylbutyl)‑1,3‑oxazole‑4‑carboxylic acid, CC[C@H](C)[C@H](N[*:1])c1nc(C(=O)[*:2])co1; Pro(4-spirocPr) = O=C(O)[C@@H]1CC2(CC2)CN1; Oic = O=C(O)[C@@H]1C[C@@H]2CCCC[C@@H]2N1; tBuAla = CC(C)(C)C[C@H](N)C(=O)O; Pen = CC(C)(S)[C@H](N)C(=O)O; NMeC = CN[C@@H](CS)C(=O)O; Orn = NCCC[C@H](N)C(=O)O

The target in the experiment is T1, recombinant rat MASP1 active protease (amino acids 302-704, C-terminal His Tag) (rat, UniProt Q8CHN8 302-704).
T1 sequence: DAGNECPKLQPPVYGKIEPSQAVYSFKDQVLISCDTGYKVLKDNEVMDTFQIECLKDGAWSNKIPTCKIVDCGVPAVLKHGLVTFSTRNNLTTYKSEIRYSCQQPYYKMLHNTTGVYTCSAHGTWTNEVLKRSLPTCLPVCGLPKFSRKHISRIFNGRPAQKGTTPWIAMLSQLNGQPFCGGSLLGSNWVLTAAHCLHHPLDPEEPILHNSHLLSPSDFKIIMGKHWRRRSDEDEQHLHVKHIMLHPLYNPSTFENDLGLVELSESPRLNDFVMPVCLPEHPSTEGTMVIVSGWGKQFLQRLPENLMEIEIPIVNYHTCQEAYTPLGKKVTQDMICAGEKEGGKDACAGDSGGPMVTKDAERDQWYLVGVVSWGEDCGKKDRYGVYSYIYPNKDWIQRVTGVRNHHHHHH
Kind of experiment: cell-based or functional assay.
As to B1, the “rat MASP1 IC50” value turned out to be 13 nM.

For B2, the “rat MASP1 IC50” value worked out at 22 nM.

In the case of B3, the “rat MASP1 IC50” value came out at 140 nM.

In the case of B4, the “rat MASP1 IC50” value came to 31 nM.

Turning to B5, the “rat MASP1 IC50” value amounted to 23 nM.

Take B6: the “rat MASP1 IC50” value is 24 nM.

Consider B7, for which the “rat MASP1 IC50” value turned out to be 51.5 nM.

Regarding B8, the “rat MASP1 IC50” value was found to be 26 nM.

B9: the “rat MASP1 IC50” value stood at 60 nM.

B10: the “rat MASP1 IC50” value came to 12 nM.

On to B11, for which the “rat MASP1 IC50” value was determined as 23 nM.

On to B12, for which the “rat MASP1 IC50” value came out at 40 nM.

For B13, the “rat MASP1 IC50” value was found to be 46 nM.

AICSRS[tBuAla]PPI[NMeC]IPD-NH2 (disulfide 3-11; also: HCl salt) [Example 30: AIC+SRS-((tBu)A)-PPI-((N-Me)C)+IPD-NH2 (HCl salt)]: the “rat MASP1 IC50” value came to 28 nM.

For B14, the “rat MASP1 IC50” value came to 13 nM.
